Source: US20180064827

Tests used:
Experiment in all cases: cell_activity
ZFN 64791 (synthetic) = settings: pair with 64842, Hepa1-6
ZFN 60422 (synthetic) = settings: pair with 64842, Hepa1-6
ZFN 64793 (synthetic) = settings: pair with 64842, Hepa1-6
ZFN 64802 (synthetic) = settings: pair with 64842, Hepa1-6
ZFN 60334 (synthetic) = settings: pair with 60137, K562
ZFN 64347 (synthetic) = settings: pair with 60751, HepG2, 40 ug/mL
ZFN 66075 (synthetic) = settings: pair with 64555, 5 ug/mL
ZFN 66079 (synthetic) = settings: pair with 64555, 5 ug/mL
ZFN 64552 (synthetic) = settings: pair with 66083 or 66084, 5 ug/mL
ZFN 60133 (synthetic) = settings: pair with 60134, K562
ZFN 60254 (synthetic) = settings: pair with 60259, K562; N7a version 60256 gave 74.32
ZFN 64555 (synthetic) = settings: pair with 66075, 5 ug/mL
ZFN 64952 (synthetic) = settings: pair with 64944, Hepa1-6
ZFN 64951 (synthetic) = settings: pair with 64946, Hepa1-6
ZFN 60413 (synthetic) = settings: pair with 64944, Hepa1-6
ZFN 64989 (synthetic) = settings: pair with 65021, Hepa1-6
ZFN 64992 (synthetic) = settings: pair with 65021, Hepa1-6
ZFN 60392 (synthetic) = settings: pair with 65022, Hepa1-6
ZFN 25277 (synthetic) = settings: pair with 25264, K562, 200 ng
ZFN 25264 (synthetic) = settings: pair with 25277, K562, 200 ng
ZFN 60043 (synthetic) = settings: pair with 60045, K562
ZFN 60750 (synthetic) = settings: pair with 67495, HepG2, 40 ug/mL
ZFN 69919 (synthetic) = settings: pair with 69922, 0.1 ug mRNA, MK2
ZFN 69915 (synthetic) = settings: pair with 69922, 0.1 ug mRNA, MK2
ZFN 69920 (synthetic) = settings: pair with 69922, 0.1 ug mRNA, MK2
ZFN 69918 (synthetic) = settings: pair with 69922, 0.1 ug mRNA, MK2
ZFN 69916 (synthetic) = settings: pair with 69922, 0.1 ug mRNA, MK2
ZFN 69903 (synthetic) = settings: pair with 69912, 0.1 ug mRNA, MK2
ZFN 69909 (synthetic) = settings: pair with 69912, 0.1 ug mRNA, MK2
ZFN 69908 (synthetic) = settings: pair with 69912, 0.1 ug mRNA, MK2
ZFN 60309 (synthetic) = settings: pair with 60308, K562
ZFN 60289 (synthetic) = settings: pair with 60287, K562
ZFN 67493 (synthetic) = settings: pair with 60750, HepG2, 40 ug/mL
ZFN 60751 (synthetic) = settings: pair with 64347, HepG2, 40 ug/mL
ZFN 67495 (synthetic) = settings: pair with 60750, HepG2, 40 ug/mL

Sequence: TCGGGAGATTGAGGGCAGGGTCACCATC (double strand) [mouse PCSK9 site A left]
- activity (ZFN 64791 (synthetic)): 41.8 % indel
- activity (ZFN 60422 (synthetic)): 35 % indel
- activity (ZFN 64793 (synthetic)): 44.9 % indel
- activity (ZFN 64802 (synthetic)): 43 % indel

Sequence: GGTACCGGGCGGATGAATACCAGCCCCC (double strand) [human PCSK9 60334 site]
- activity (ZFN 60334 (synthetic)): 67.9 % indel

Sequence: TCTTACTGGAAGGCACTTGGCATCTCCC (double strand) [human TTR 64347 site]
- activity (ZFN 64347 (synthetic)): 63.5 % indel

Sequence: ACTTGCTGCATATGTGGCTAAAGCAATA (double strand) [M. mulatta HAO1 left]
- activity (ZFN 66075 (synthetic)): 86.9 % indel
- activity (ZFN 66079 (synthetic)): 84.2 % indel
- activity (ZFN 64552 (synthetic)): 80.6 % indel

Sequence: CCGCCCGGTACCGTGGAGGGGTAATCCG (double strand) [human PCSK9 60133 site]
- activity (ZFN 60133 (synthetic)): 72.6 % indel

Sequence: CGCTGCCGGCAACTTCCGGGACGATGCC (double strand) [human PCSK9 60254 site]
- activity (ZFN 60254 (synthetic)): 75.7 % indel

Sequence: TCCCAGCTGATAGATGGGTCTATTGCTT (double strand) [M. mulatta HAO1 right]
- activity (ZFN 64555 (synthetic)): 86.9 % indel

Sequence: CACATGGGGCAACTTCAGGGCCTACAGA (double strand) [mouse PCSK9 site E right]
- activity (ZFN 64952 (synthetic)): 49.1 % indel
- activity (ZFN 64951 (synthetic)): 51.3 % indel
- activity (ZFN 60413 (synthetic)): 41.4 % indel

Sequence: AGGATGGAGATTATGAAGAGCTGATGCT (double strand) [mouse PCSK9 site G left]
- activity (ZFN 64989 (synthetic)): 83.3 % indel
- activity (ZFN 64992 (synthetic)): 79.8 % indel
- activity (ZFN 60392 (synthetic)): 69.2 % indel

Sequence: GAAAGGGACTGAAGCTGCTGGGGCCATG (double strand) [SERPINA1 25277 site]
- activity (ZFN 25277 (synthetic)): 40.9 % indel

Sequence: GTCGATGGTCAGCACAGCCTTATGCACG (double strand) [SERPINA1 25264 site]
- activity (ZFN 25264 (synthetic)): 40.9 % indel

Sequence: AGGATCCGTGGAGGTTGCCTGGCACCTA (double strand) [human PCSK9 60043 site]
- activity (ZFN 60043 (synthetic)): 65.4 % indel

Sequence: CTTACTGGAAGGCACTTGGCATCTCCCC (double strand) [human TTR 60750 site]
- activity (ZFN 60750 (synthetic)): 61.8 % indel

Sequence: GTGGGACATCGCAGGCTGCTGCCCACGT (double strand) [M. mulatta PCSK9 exon 7 left]
- activity (ZFN 69919 (synthetic)): 76.1 % indel
- activity (ZFN 69915 (synthetic)): 78 % indel
- activity (ZFN 69920 (synthetic)): 72.1 % indel
- activity (ZFN 69918 (synthetic)): 71.2 % indel
- activity (ZFN 69916 (synthetic)): 81.4 % indel

Sequence: GTGGAGGCTGCCCGGCACCTACGTGGTG (double strand) [M. mulatta PCSK9 exon 2 left]
- activity (ZFN 69903 (synthetic)): 33.7 % indel
- activity (ZFN 69909 (synthetic)): 58.7 % indel
- activity (ZFN 69908 (synthetic)): 42.5 % indel

Sequence: TATCCCCGGCGGGCAGCCTGGGCCTGCA (double strand) [human PCSK9 60309 site]
- activity (ZFN 60309 (synthetic)): 71.8 % indel

Sequence: AGAGAAGTGGATCAGTCTCTGCCTCAAC (double strand) [human PCSK9 60289 site]
- activity (ZFN 60289 (synthetic)): 73.1 % indel

Sequence: TGCATGCTCATGGAATGGGGAGATGCCA (double strand) [human TTR exon 3 right]
- activity (ZFN 67493 (synthetic)): 59.2 % indel
- activity (ZFN 60751 (synthetic)): 63.5 % indel
- activity (ZFN 67495 (synthetic)): 61.8 % indel
